Measurements reported in paper PMC2196193.

Biological target: MBP-III2 (rat) (UniProt P04937)
Experiment: ELISA

Sequence of UniProt P04937 (P04937 701-808): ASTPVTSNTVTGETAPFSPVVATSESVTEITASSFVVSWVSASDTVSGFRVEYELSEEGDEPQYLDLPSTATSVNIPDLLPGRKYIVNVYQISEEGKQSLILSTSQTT

Kd: 28 nM
Substance: rat plasma fibronectin (from UniProt P04937 25-2477) (natural protein)
